This note sets out measurements from patent US20180193475A1 (Novartis, published 2018).

For assay [1], the target named is T1, Human cKIT D1-3 (ECD subdomains 1-3, ligand binding domain) (human, UniProt P10721 26-311).
T1 construct: also called cKIT subdomains 1-3
Description: ELISA on coated cKIT ECD subdomains.

Assay [2] deals with T2, Mouse cKIT ECD, C-terminal 6x His (Sino Biological Inc, catalog number 50530-M08H) (mouse, UniProt P05532 25-527).
T2 construct: extracellular domain; Bought protein; not shown: C-terminal 6x His tag
T2 sequence (looked up): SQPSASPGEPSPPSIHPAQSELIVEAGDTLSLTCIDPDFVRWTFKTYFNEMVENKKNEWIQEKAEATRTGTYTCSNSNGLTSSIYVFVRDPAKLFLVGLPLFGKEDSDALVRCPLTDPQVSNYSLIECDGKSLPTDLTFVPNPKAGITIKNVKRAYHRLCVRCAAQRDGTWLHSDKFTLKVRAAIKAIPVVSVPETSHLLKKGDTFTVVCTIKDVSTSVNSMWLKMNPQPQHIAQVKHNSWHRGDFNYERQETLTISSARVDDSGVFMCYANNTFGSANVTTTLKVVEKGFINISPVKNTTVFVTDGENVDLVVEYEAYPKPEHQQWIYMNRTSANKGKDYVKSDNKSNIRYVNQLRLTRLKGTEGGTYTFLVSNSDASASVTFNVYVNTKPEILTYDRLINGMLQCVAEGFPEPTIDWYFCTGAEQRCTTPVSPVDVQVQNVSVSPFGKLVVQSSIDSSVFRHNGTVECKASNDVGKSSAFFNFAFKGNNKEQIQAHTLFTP
Description: SPR (Biacore 2000): antibody captured by anti-human Fc, cKIT ECD in solution. On the procedure:
(§1) Affinity of the antibodies to cKIT species orthologues and also to cKIT was determined using SPR technology using a Biacore® 2000 instrument (GE Healthcare, Pittsburgh, Pa.) and with CM5 sensor chips.
(§2) Briefly, HBS-P (0.01 M HEPES, pH 7.4, 0.15 M NaCl, 0.005% Surfactant P20) supplemented with 2% Odyssey® blocking buffer (Li-Cor Biosciences, Lincoln, Nebr.) was used as the running buffer for all the experiments. The immobilization level and analyte interactions were measured by response unit (RU).
(§3) For kinetic measurements, the experiments were performed in which the antibodies were captured to the sensor chip surface via the immobilized anti-human Fc antibody and the ability of the cKIT proteins to bind in free solution was determined. […] 0.1-1 μg/ml of test antibodies were then injected at 10 μl/min for 1 minute. […] Subsequently, 3.125-50 nM of cKIT receptor extracellular domains (ECD) were diluted in a 2-fold series and injected at a flow rate of 40 μl/min for 3 min over both reference and test flow cells. Table of tested ECDs is listed below (Table 6). Dissociation of the binding was followed for 10 min. After each injection cycle, the chip surface was regenerated with 3 M MgCl₂ at 10 μl/min for 30 seconds.
Background: Surface plasmon resonance follows binding to a sensor surface in real time, without labels.

Assay [3] deals with T3, Rat cKIT D1-5, C-terminal mFc (rat).
T3 construct: The whole entry is rat cKIT ECD residues 25-526, a linker and a mouse Fc tag; also called rat cKIT-mFc
T3 chain: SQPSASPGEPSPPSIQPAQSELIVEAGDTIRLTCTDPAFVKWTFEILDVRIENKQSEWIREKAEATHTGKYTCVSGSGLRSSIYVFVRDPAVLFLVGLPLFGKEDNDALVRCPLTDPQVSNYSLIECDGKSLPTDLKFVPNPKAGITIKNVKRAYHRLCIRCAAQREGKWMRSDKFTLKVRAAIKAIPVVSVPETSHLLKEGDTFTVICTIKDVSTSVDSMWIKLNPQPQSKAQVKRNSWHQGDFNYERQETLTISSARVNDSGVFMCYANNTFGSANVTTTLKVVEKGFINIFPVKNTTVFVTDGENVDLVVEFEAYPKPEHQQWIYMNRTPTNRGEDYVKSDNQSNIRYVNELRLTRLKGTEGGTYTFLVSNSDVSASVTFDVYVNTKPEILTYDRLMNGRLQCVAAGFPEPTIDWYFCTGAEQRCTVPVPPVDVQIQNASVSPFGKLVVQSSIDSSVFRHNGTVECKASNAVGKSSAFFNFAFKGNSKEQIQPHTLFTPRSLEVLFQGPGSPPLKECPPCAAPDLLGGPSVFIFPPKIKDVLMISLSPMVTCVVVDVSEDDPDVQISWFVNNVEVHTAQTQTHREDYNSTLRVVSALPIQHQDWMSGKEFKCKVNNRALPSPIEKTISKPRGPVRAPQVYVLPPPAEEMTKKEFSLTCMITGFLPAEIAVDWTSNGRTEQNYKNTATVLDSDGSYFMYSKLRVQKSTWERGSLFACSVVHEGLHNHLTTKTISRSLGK
The description is as above. On the procedure: as §1, §2, §3

T1 sequence (P10721 other isoform, or with tags, fused parts or gaps limits assumed): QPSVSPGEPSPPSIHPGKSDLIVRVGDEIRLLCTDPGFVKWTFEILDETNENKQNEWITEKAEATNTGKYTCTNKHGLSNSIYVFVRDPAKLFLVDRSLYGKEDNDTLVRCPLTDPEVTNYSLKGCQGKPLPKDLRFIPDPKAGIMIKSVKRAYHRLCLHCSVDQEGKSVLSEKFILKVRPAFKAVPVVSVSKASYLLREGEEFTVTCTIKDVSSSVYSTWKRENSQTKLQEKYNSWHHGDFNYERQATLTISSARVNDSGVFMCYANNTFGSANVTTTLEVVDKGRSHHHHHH

B1: NEG026 (antibody, human IgG1, kappa, V domains shown)
VH: EVQLVESGGGLVQPGGSLRLSCAASGFTFSDYYMAWVRQAPGKGLEWVANINQNTGSTYYVDSVQGRFTISRDNAKNSLYLQMNSLRAEDTAVYYCARGDYYGTTYWYFDVWGQGTTVTVSS
VL: EIVMTQSPATLSLSPGERATLSCRASQDISNYLNWYQQKPGQAPRLLIYYTSRLQSGIPARFSGSGSGTDYTLTISSLEPEDFAVYYCQQGKKLWSFGGGTKVEIKR
notes: Humanized, optimized variant of 9P3; human IgG1 kappa
For B1, the binding result is reported as “binds” in assay [1], “no binding (tested: 3.125-50 nM ECD injected)” in assay [2] and “no binding (tested: 3.125-50 nM ECD injected)” in assay [3].
